Tests used:
[1] = molecular target: human NL1 cholinesterase domain lacking splice inserts (hNL1(–A–B)_(ECTO); Gln46-Asp635), crystallisation sample (human); experiment: crystal structure; Endo F1-treated hNL1(–A–B)_(ECTO)–cMDGA1_(ECTO) complex, mixed 1:1.25, 0.1M Na.HEPES pH 7.0, 7.5% PEG8000; 3.30 Å
[2] = molecular target: human NL1(–A+B)_(ECTO), immobilised for SPR (human); experiment: SPR; biotinylated NL_(ECTO)-Avitag variants captured from dialysed conditioned medium on streptavidin CM5 chip (500 RU; 550 RU for the ΔSite series; 1000 RU for NL3 and NL3 Arg451Cys in the R451C series); β-NRX1_(LNS6)(±4), MDGA1_(ECTO), MDGA2_(ECTO) injected, 15 concentrations, two-fold series from 50 μM; TBS-CTB (10 mM Tris pH 7.4, 150 mM NaCl, 3 mM CaCl2, 0.005% Tween-20, 1.0 g/L BSA); equilibrium analysis, 1:1 Langmuir model
[3] = molecular target: human NL1(–A–B)_(ECTO), biotinylated and immobilised for SPR (human); experiment: as above
[4] = molecular target: human NL3(–A)_(ECTO) (Gln38-Asp636), immobilised for SPR (human) (UniProt Q9NZ94); experiment: as above
human NL3(–A)_(ECTO) (Gln38-Asp636), immobilised for SPR (human), sequence (Q9NZ94 other isoform, or with tags, fused parts or gaps): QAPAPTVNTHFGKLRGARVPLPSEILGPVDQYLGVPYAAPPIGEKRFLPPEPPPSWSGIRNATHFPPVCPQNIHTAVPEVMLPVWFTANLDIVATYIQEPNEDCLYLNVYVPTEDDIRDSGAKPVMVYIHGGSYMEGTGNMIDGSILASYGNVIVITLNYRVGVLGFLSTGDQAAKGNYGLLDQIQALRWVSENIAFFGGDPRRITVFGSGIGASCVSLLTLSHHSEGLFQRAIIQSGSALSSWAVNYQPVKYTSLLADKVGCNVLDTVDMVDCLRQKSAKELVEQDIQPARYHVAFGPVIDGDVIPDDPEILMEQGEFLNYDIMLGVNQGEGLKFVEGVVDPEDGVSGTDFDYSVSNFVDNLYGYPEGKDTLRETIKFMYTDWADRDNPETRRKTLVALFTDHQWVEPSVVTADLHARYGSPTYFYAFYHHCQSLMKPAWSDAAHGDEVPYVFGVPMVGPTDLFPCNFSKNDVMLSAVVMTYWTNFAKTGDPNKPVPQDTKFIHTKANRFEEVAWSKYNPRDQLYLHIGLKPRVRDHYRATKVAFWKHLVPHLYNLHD

[5] = molecular target: human NL1(–A–B)_(ECTO) (Gln46-Asp635), soluble protein for ITC and as SPR analyte (human); experiment: ITC; competition: β-NRX1_(LNS6)(–4) titrated into NL1_(ECTO) with an equimolar amount of MDGA1_(ECTO) in the cell; HBS-C, 295 K; apparent KD
[6] = molecular target: human NL1(–A–B)_(ECTO) (Gln46-Asp635), soluble protein for ITC and as SPR analyte (human); experiment: ITC; β-NRX1_(LNS6)(–4) in the syringe titrated into NL1_(ECTO) alone in the cell; HBS-C (10 mM HEPES pH 7.50, 150 mM NaCl, 3 mM CaCl2), 295 K; one binding site model

| fold weaker than with NL1(–A–B) (ECTO) [2] | Kd [3] | Kd [4] | K (D,app) with an equimolar amount of MDGA1 (ECTO) [5] | Kd [6] | Substance | stoichiometry N [1] |
| --- | --- | --- | --- | --- | --- | --- |
| – | – | – | – | – | human NL1 cholinesterase domain lacking splice inserts (hNL1(–A–B)_(ECTO); Gln46-Asp635), crystallisation sample (domain or fragment) | 2 |
| < 2 fold | 718 nM | 8500 nM | 4.76 µM | 388 nM | human β-neurexin-1 LNS6 domain lacking SS4 (β-NRX1_(LNS6)(–4); His85-Val265) (domain or fragment) | – |
| < 2 fold | – | – | – | – | human β-neurexin-1 LNS6 domain with SS4 (β-NRX1_(LNS6)(+4)) (domain or fragment) | – |

From article PMC5563082
